Assays:
[1] = biological target: Recombinant CorA (without the predicted signal peptide) (Methylomicrobium album BG8); test: SEC; calibrated Superdex 75 16/60 gel filtration, 20 mM Tris-HCl pH 7.5, 1 mM CaCl2; data not shown
[2] = biological target: CorA, endogenously expressed, purified from Methylomicrobium album BG8 (Methylomicrobium album BG8); test: SEC; calibrated Superdex 75 16/60 gel filtration, 40 mM Tris-HCl pH 8.0, 0.5 M NaCl; data not shown

Row | stoichiometry N [1] | stoichiometry N [2] | Substance
1 | 2 | – | Recombinant CorA (without the predicted signal peptide) (natural protein)
2 | – | 2 | CorA, endogenously expressed, purified from Methylomicrobium album BG8 (natural protein)
